Measurements: patent publication US20220033515A1 (Genentech, published 2022)
Like-named read-outs stand apart in the source and are kept apart here.

T1: hVEGF-C (human, UniProt P49767 103-227)
T1 sequence (looked up): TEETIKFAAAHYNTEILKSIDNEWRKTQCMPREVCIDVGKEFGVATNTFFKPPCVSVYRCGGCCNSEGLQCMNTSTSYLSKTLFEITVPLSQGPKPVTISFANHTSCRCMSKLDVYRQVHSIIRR

T2: hVEGF-D (human, UniProt O43915 93-201)
T2 sequence (looked up): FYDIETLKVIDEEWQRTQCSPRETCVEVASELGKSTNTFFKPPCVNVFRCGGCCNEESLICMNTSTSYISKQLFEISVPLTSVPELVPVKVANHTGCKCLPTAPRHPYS

T3: murine VEGF (mVEGF) (murine, UniProt Q00731-2 27-190)
T3 sequence (looked up): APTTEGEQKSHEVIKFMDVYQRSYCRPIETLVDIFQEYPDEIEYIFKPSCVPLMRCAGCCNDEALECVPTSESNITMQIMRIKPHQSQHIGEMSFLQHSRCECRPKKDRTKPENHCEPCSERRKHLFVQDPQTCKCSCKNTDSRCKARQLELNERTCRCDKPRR

T4: hVEGF109 (human, UniProt P15692 214-315)
T4 construct: range 8-109; also called VEGF (8-109)
T4 sequence (looked up): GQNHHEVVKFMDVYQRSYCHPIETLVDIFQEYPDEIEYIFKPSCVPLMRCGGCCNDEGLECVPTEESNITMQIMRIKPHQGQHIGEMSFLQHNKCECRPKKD

B1: bH1 hIgG (antibody, V domains shown)
VH: not shown
VL: DIQMTQSPSSLSASVGDRVTITCRASQDIPRSISGYVAWYQQKPGKAPKLLIYWGSYLYSGVPSRFSGSGSGTDFTLTISSLQPEDFATYYCQQHYTTPPTFGQGTKVEIKR
notes: also called bH1 IgG; not shown: rest of the human IgG heavy chain constant region
B2: bH3 (antibody, V domains shown)
VH: not shown
VL: DIQMTQSPSSLSASVGDRVTITCRASQDIGLGSVAWYQQKPGKAPKLLIYWASYLYSGVPSRFSGSGSGTDFTLTISSLQPEDFATYYCQQHYTTPPTFGQGTKVEIKR
B3: H3 hIgG (antibody, V domains shown)
VH: not shown
VL: B2 VL
notes: also called bH3 IgG; not shown: rest of the human IgG heavy chain constant region
B4: 3-1 (antibody, V domains shown)
VH: not shown
VL: DIQMTQSPSSLSASVGDRVTITCRASQNVWDWVAWYQQKPGKAPKLLIYPASSLYSGVPSRFSGSGSGTDFTLTISSLQPEDFATYYCQQGWYIAPPTFGQGTKVEIKR
B5: 3-1 hIgG (antibody, V domains shown)
VH: not shown
VL: B4 VL
notes: not shown: rest of the human IgG heavy chain constant region
B6: 3-2 (scFv, V domains shown)
VH: not shown
VL: DIQMTQSPSSLSASVGDRVTITCRASQDIRMGSVAWYQQKPGKAPKLLIYWGSVLYSGVPSRFSGSGSGTDFTLTISSLQPEDFATYYCQQHYTTPPTFGQGTKVEIK

Tests used:
[1] = target: T5, HER2 extracellular domain (Her2-ECD) (human, UniProt P04626 23-652); assay: Biacore SPR
T5 construct: extracellular domain; also called hHER2 extracellular domain (ECD)

[2] = target: T6, bovine serum albumin (BSA) (bovine, UniProt P02769 25-607); assay: ELISA on immobilised target
hVEGF-C [3] = target: T1, hVEGF-C; assay: ELISA on immobilised target
hVEGF-D [4] = target: T2, hVEGF-D; assay: ELISA on immobilised target
[5] = target: T7, human death receptor 5 (hDR5) (human, UniProt O14763 56-210); assay: ELISA on immobilised target
T7 construct: also called DR5 long; hDR5-1f

[6] = target: T8, epidermal growth factor receptor extracellular domain (hEGFR) (human, UniProt P00533 25-645); assay: ELISA on immobilised target
T8 construct: extracellular domain

[7] = target: T5, HER2 extracellular domain (Her2-ECD); assay: equilibrium KD; method and format (Fab or IgG) not given; HER2, second number of the cell
[8] = target: T5, HER2 extracellular domain (Her2-ECD); assay: competitive phage ELISA
[9] = target: T9, human vascular endothelial growth factor (hVEGF) (human, UniProt P15692-4 27-191); assay: equilibrium KD; method and format (Fab or IgG) not given
T9 construct: also called hVEGF-A; human vascular endothelial growth factor A

[10] = target: T5, HER2 extracellular domain (Her2-ECD); assay: single-spot competitive phage ELISA
[11] = target: T6, bovine serum albumin (BSA); assay: ELISA on immobilised protein
[12] = target: T7, human death receptor 5 (hDR5); assay: ELISA on immobilised protein
murine VEGF (mVEGF) = target: T3, murine VEGF (mVEGF); assay: ELISA on immobilised target
hVEGF109 = target: T4, hVEGF109; assay: Biacore SPR
[13] = target: T5, HER2 extracellular domain (Her2-ECD); assay: single-spot phage ELISA
[14] = target: T5, HER2 extracellular domain (Her2-ECD); assay: ELISA on immobilised protein
hVEGF-C [15] = target: T1, hVEGF-C; assay: ELISA on immobilised protein
hVEGF-D [16] = target: T2, hVEGF-D; assay: ELISA on immobilised protein
[17] = target: T8, epidermal growth factor receptor …; assay: ELISA on immobilised protein
[18] = target: T5, HER2 extracellular domain (Her2-ECD); assay: competitive phage ELISA; remark: listed apart in the source
[19] = target: T9, human vascular endothelial growth …; assay: competitive phage ELISA

Row | Binder | Kd [1] | binding result (hVEGF-C [3]) | binding result (hVEGF-D [4]) | binding result [6] | Kd [9] | binding result [11] | binding result [12] | Kd (hVEGF109) | further results
1 | B1 | 9.8 nM | no binding (tested: 100 nM (text)) | no binding (tested: 100 nM (text)) | no binding (tested: 100 nM (text)) |  |  |  |  | binding result [2]: no binding (tested: 100 nM (text)); binding result [5]: no binding (tested: 100 nM (text))
2 | B2 |  |  |  |  | 19000 nM |  |  |  | Kd [7]: 8 nM; IC50 [8]: 2.6 nM; OD450 without competitor [10]: 1.96
3 | B3 | 20 nM | no binding (tested: 100 nM (text)) | no binding (tested: 100 nM (text)) | no binding (tested: 100 nM (text)) |  | no binding (tested: 100 or 500 nM (text)) | no binding (tested: 100 or 500 nM (text)) |  | binding result (murine VEGF (mVEGF)): no binding (tested: 100 nM (text))
4 | B4 |  |  |  |  | 15 nM |  |  | 15 nM | binding result [13]: no binding
5 | B5 |  |  |  |  |  | no binding (tested: 100 or 500 nM (text)) | no binding (tested: 100 or 500 nM (text)) | 12 nM | binding result [14]: no binding (tested: 100 or 500 nM (text)); binding result (hVEGF-C [15]): no binding (tested: 100 or 500 nM (text)); binding result (hVEGF-D [16]): no binding (tested: 100 or 500 nM (text)); binding result [17]: no binding (tested: 100 or 500 nM (text))
6 | B6 |  |  |  |  |  |  |  |  | IC50 [18]: 1.56 nM; IC50 [19]: > 1000 nM
